Data as given in article PMC11203732, “Structural Evaluation of a Nitroreductase Engineered for Improved Activation of the 5-Nitroimidazole PET Probe SN33623” (International Journal of Molecular Sciences, 2024).

Target: the molecule itself
Experiment: crystal structure; hanging-drop vapor diffusion at 18 °C; 7 mg/mL protein in 40 mM Tris-HCl pH 7.0, 200 mM NaCl; precipitant 0.2 M sodium chloride, 0.1 M sodium acetate pH 4.0, 33% PEG 8000; four molecules in the asymmetric unit; FMN bound

B1: E. coli NfsB F70A/F108Y (enzyme)
chain: MDIISVALKRHSTKAFDASKKLTPEQAEQIKTLLQYSPSSTNSQPWHFIVASTEEGKARVAKSAAGNYVANERKMLDASHVVVFCAKTAMDDVWLKLVVDQEDADGRYATPEAKAANDKGRKFFADMHRKDLHDDAEWMAKQVYLNVGNFLLGVAALGLDAVPIEGFDAAILDAEFGLKEKGYTSLVVVPVGHHSVEDFNATLPKSRLPQNITLTEV
notes: Nitroreductase NfsB of Escherichia coli, 24 kDa subunit, with the substitutions F70A and F108Y; synthetic gene (Twist Bioscience) cloned into pET28a+; Homodimer with one FMN in each of two active sites at the dimer interface; also called mutNfsB; double-mutant F70A/F108Y
- stoichiometry N: 2
